Biological target: CXCR3 from Mus musculus (NCBI accession no. NP_034040) (Mus musculus) (UniProt O88410)
Assay: cell-based or functional assay

Sequence of UniProt O88410 (O88410 whole entry): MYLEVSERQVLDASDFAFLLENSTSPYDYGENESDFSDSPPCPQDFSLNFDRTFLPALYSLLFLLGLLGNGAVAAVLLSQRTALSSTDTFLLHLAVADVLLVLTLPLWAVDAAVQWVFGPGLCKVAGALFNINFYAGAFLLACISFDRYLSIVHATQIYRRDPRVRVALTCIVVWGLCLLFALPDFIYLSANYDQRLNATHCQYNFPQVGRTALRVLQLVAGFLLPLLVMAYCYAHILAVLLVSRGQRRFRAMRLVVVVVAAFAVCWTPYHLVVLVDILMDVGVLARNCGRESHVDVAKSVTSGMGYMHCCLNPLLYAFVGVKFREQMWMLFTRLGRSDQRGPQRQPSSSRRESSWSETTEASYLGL

TEER, WT mouse intestinal segments (n=10), baseline: 24.1
TEER, WT mouse intestinal segments (n=10), post-gliadin exposure: 14.7
zonulin release, WT mouse intestinal segments (n=10), baseline (ng/mg protein): 0.33
zonulin release, WT mouse intestinal segments (n=10), post-gliadin exposure (ng/mg protein): 0.61
Substance: PT-gliadin (gliadin digested with pepsin and trypsin) (peptide)
